Data from patent US20070087356A1.

Tests used:
[1] = target: GFP-Tus-His6 fusion protein (green fluorescent protein fused to E. coli Tus E47Q with a C-terminal six-histidine tag) (E. coli) (UniProt P16525); assay: protein microarray, fluorescence scan; fusion protein expressed in situ and captured on the spotted plasmid with mutant Ter site (SEQ ID NO: 12)
[2] = target: GFP-Tus-His6 fusion protein (green fluorescent protein fused to E. coli Tus E47Q with a C-terminal six-histidine tag) (E. coli) (UniProt P16525); assay: protein microarray, fluorescence scan; fusion protein expressed in situ and captured on the spotted plasmid with wild-type Ter site

Cy3 Signal Intensity (Background subtracted) (arbitrary units) [1]: 10900
Cy5 Signal Intensity (Background subtracted) (arbitrary units) [1]: 4740
Cy3 Signal Intensity (Background subtracted) (arbitrary units) [2]: 20600
Cy5 Signal Intensity (Background subtracted) (arbitrary units) [2]: 14000
Substance: monoclonal antibody to the poly-his tag (Sigma-Aldrich), labeled with Cy3 or Cy5
